Results on three molecules are retold here after article PMC12618484 (Nature Communications, 2025).

The Kd is the free concentration of one partner at which half of the binding sites on the other are occupied at equilibrium, for simple one-to-one binding. A high value points to a looser complex. A word on the stoichiometry N: it is a count of units in the complex or per binding partner.

The target in data set [1] is T1, dihydrolipoamide dehydrogenase (DLD) (Homo sapiens, UniProt P09622).
T1 sequence (P09622 36-509): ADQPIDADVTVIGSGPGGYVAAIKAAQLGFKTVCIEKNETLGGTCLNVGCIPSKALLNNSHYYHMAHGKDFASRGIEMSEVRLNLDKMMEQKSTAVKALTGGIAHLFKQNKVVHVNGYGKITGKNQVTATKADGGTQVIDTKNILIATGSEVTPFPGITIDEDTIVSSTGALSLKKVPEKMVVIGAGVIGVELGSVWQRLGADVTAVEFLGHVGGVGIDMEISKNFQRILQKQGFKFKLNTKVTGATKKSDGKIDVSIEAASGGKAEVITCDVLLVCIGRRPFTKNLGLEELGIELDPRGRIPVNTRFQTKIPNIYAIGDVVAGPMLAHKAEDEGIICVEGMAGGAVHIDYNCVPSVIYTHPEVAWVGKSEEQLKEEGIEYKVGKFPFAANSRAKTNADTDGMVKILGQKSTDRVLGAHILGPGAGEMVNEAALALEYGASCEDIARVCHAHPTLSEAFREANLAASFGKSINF
Kind of data set: bio-layer interferometry and SPR. Type of data set: binding.

Data set [2] concerns the molecule itself. Kind of data set: cross-linking.

As for `O=C(O)CCCCC(CCSCc1ccccc1)SCc1ccccc1` (stereo not drawn) [devimistat], the dissociation constant Kd in data set [1] was 500 to 600 nM.

B1: HA-tagged DLD-K430Q (enzyme, human, UniProt P09622 36-509, looked up)
chain: ADQPIDADVTVIGSGPGGYVAAIKAAQLGFKTVCIEKNETLGGTCLNVGCIPSKALLNNSHYYHMAHGKDFASRGIEMSEVRLNLDKMMEQKSTAVKALTGGIAHLFKQNKVVHVNGYGKITGKNQVTATKADGGTQVIDTKNILIATGSEVTPFPGITIDEDTIVSSTGALSLKKVPEKMVVIGAGVIGVELGSVWQRLGADVTAVEFLGHVGGVGIDMEISKNFQRILQKQGFKFKLNTKVTGATKKSDGKIDVSIEAASGGKAEVITCDVLLVCIGRRPFTKNLGLEELGIELDPRGRIPVNTRFQTKIPNIYAIGDVVAGPMLAHKAEDEGIICVEGMAGGAVHIDYNCVPSVIYTHPEVAWVGKSEEQLKEEGIEYKVGKFPFAANSRAQTNADTDGMVKILGQKSTDRVLGAHILGPGAGEMVNEAALALEYGASCEDIARVCHAHPTLSEAFREANLAASFGKSINF
For B1, the “stoichiometry N” value in data set [2] came to 2.

B2: HA-tagged DLD-K430R (enzyme, human, UniProt P09622 36-509, looked up)
chain: ADQPIDADVTVIGSGPGGYVAAIKAAQLGFKTVCIEKNETLGGTCLNVGCIPSKALLNNSHYYHMAHGKDFASRGIEMSEVRLNLDKMMEQKSTAVKALTGGIAHLFKQNKVVHVNGYGKITGKNQVTATKADGGTQVIDTKNILIATGSEVTPFPGITIDEDTIVSSTGALSLKKVPEKMVVIGAGVIGVELGSVWQRLGADVTAVEFLGHVGGVGIDMEISKNFQRILQKQGFKFKLNTKVTGATKKSDGKIDVSIEAASGGKAEVITCDVLLVCIGRRPFTKNLGLEELGIELDPRGRIPVNTRFQTKIPNIYAIGDVVAGPMLAHKAEDEGIICVEGMAGGAVHIDYNCVPSVIYTHPEVAWVGKSEEQLKEEGIEYKVGKFPFAANSRARTNADTDGMVKILGQKSTDRVLGAHILGPGAGEMVNEAALALEYGASCEDIARVCHAHPTLSEAFREANLAASFGKSINF
For B2, the “stoichiometry N” value in data set [2] is 2.
